Source: patent US20020176866A1
Non-standard residues stand in square brackets, D forms with d. No end group written: not given here.

Experiments:
[1] = biological target: rat MHC class II (I-A or I-E) on splenic adherent cells (antigen presenting cells) (rat); test: competition with 10 µM biotin-labeled MBP (87-99) on rat splenic adherent cells, flow cytometry; competitor at 200 µM
[2] = biological target: rat MHC class II (I-A or I-E) on splenic adherent cells (antigen presenting cells) (rat); test: competition with 10 µM biotin-labeled MBP native peptide on rat splenic adherent cells, flow cytometry; competitor at 100 µM

Row | Binder | percent inhibition of binding at 200 µM [1] | percent inhibition of binding at 100 µM [2]
1 | VV[dH]FFANIVTPRT [h88/A91, peptide analog of MBP (87-99) with D-histidine at residue 88 and alanine at residue 91] | 67.6% | 
2 | VVHFFKNIVTPRT [MBP (87-99), human myelin basic protein residues 87-99] | 68.4% | 40%
3 | D[dA]NPVVHAFANIVTPRT [a83, A89, A91 peptide analog of human myelin basic protein] |  | 25%
